Tests used:
Beclin 1 [1] = target: Beclin 1 (UniProt Q14457); assay: anti-flag IP of flag-Beclin 1, HA-Vps34 blot; settings: reference: wild type with Cdk5/p25; sites T159
Beclin 1 [2] = target: Beclin 1 (UniProt Q14457); assay: anti-flag IP of flag-Vps34, GFP-Beclin 1 blot; settings: reference: wild type with Cdk5/p25; sites T159

- binding against the reference (Beclin 1 [1]): stronger
- binding against the reference (Beclin 1 [2]): stronger
Substance: Vps34 (from UniProt Q8NEB9) T159A with Cdk5/p25

From paper PMC2888511
